Test results published in patent US12503443B2, “Process-scale synthesis of a plasma kallikrein inhibitor” (BioCryst Pharmaceuticals, Inc., priority 2019, dated 2025).

How the values were obtained:
[1] = tested on: patients with hereditary angioedema (HAE); settings: human, in vivo; cited from earlier work
human plasma kallikrein = human plasma kallikrein (Homo sapiens, UniProt P03952); assay: in vitro biochemical assay measuring inhibition of human plasma kallikrein activity; settings: protocols and results in WO 2015/134998 and US 2017/0073314 A1
Sequence of human plasma kallikrein (P03952 391-638 limits assumed): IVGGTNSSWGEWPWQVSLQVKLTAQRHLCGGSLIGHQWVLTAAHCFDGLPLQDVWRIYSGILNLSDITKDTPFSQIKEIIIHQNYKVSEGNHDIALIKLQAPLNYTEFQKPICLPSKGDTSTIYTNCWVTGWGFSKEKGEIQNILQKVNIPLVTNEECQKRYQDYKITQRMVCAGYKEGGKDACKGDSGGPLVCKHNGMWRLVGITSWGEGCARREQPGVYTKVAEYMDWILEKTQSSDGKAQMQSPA
Sequence of human plasma kallikrein (P03952 20-390 partner limits assumed): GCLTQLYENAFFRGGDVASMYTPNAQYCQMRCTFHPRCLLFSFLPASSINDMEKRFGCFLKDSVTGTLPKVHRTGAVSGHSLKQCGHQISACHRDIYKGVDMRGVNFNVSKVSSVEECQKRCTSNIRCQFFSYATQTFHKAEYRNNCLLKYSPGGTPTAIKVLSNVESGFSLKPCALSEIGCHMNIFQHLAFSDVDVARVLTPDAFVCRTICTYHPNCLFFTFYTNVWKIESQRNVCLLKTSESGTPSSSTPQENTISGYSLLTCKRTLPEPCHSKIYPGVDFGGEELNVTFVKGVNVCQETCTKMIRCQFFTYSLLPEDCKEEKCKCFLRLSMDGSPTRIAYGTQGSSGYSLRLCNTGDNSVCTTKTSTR
Procedure: Compound I was assayed in an in vitro biochemical assay measuring inhibition of human plasma kallikrein activity. Experimental protocols and results of the assays are found in WO 2015/134998 and U.S. Patent Application Publication No. 2017/0073314 A1 (both incorporated by reference).

rat models of arthritis = settings: cited from earlier work
sepsis patients = settings: cited from earlier work
[2] = tested on: mouse model of middle cerebral artery occlusion (MCAO); settings: cited from earlier work
[3] = tested on: lipopolysaccharide (LPS)- or bacterial-induced sepsis in animals; settings: cited from earlier work

Molecule: NC(N)=NCCC[C@@H](N)C(=O)N[C@@H](CCCN=C(N)N)C(=O)N1CCC[C@H]1C(=O)N1C[C@H](O)C[C@H]1C(=O)NCC(=O)N[C@@H](Cc1cccs1)C(=O)N[C@@H](CO)C(=O)N1Cc2ccccc2C[C@@H]1C(=O)N1[C@H](C(=O)N[C@@H](CCCN=C(N)N)C(=O)O)C[C@@H]2CCCC[C@@H]21 [Icatibant]
- treating HAE [1]: effective

Molecule: N#Cc1cccc([C@@H](NCC2CC2)c2ccc(F)c(NC(=O)c3cc(C(F)(F)F)nn3-c3cccc(CN)c3)c2)c1 [Compound I]
- inhibition of human plasma kallikrein activity (human plasma kallikrein): potent inhibitor

Molecule: Cl.NCC1CCC(C(=O)N[C@@H](Cc2ccccc2)C(=O)Nc2ccc(CC(=O)O)cc2)CC1 (stereo partly shown) [PKSI-527]
- joint swelling (rat models of arthritis): reduce

B1: C1-inhibitor: physiological inhibitor of kallikrein in human plasma (protein, UniProt P05155 23-500, looked up)
Plasma protease C1 inhibitor: NPNATSSSSQDPESLQDRGEGKVATTVISKMLFVEPILEVSSLPTTNSTTNSATKITANTTDEPTTQPTTEPTTQPTIQPTQPTTQLPTDSPTQPTTGSFCPGPVTLCSDLESHSTEAVLGDALVDFSLKLYHAFSAMKKVETNMAFSPFSIASLLTQVLLGAGENTKTNLESILSYPKDFTCVHQALKGFTTKGVTSVSQIFHSPDLAIRDTFVNASRTLYSSSPRVLSNNSDANLELINTWVAKNTNNKISRLLDSLPSDTRLVLLNAIYLSAKWKTTFDPKKTRMEPFHFKNSVIKVPMMNSKKYPVAHFIDQTLKAKVGQLQLSHNLSLVILVPQNLKHRLEDMEQALSPSVFKAIMEKLEMSKFQPTLLTLPRIKVTTSQDMLSIMEKLEFFDFSYDLNLCGLTEDPDLQVSAMQHQTVLELTETGVEAAAASAISVARTLLVFEVQQPFLFVLWDQQHKFPVFMGRVYDPRA
- clinical outcome in sepsis patients (sepsis patients): Clinical improvement
- infarct size [2]: reduced
- lesions [3]: reduce
- vascular permeability in multiple organs [3]: reduce
